Residue numbers refer to the chain shown, from its start.
T1: human beta klotho expressed on cells (human, UniProt Q86Z14 1-1044)
T1 construct: also called HuKLB overexpressing cells; Human KLB
T1 sequence: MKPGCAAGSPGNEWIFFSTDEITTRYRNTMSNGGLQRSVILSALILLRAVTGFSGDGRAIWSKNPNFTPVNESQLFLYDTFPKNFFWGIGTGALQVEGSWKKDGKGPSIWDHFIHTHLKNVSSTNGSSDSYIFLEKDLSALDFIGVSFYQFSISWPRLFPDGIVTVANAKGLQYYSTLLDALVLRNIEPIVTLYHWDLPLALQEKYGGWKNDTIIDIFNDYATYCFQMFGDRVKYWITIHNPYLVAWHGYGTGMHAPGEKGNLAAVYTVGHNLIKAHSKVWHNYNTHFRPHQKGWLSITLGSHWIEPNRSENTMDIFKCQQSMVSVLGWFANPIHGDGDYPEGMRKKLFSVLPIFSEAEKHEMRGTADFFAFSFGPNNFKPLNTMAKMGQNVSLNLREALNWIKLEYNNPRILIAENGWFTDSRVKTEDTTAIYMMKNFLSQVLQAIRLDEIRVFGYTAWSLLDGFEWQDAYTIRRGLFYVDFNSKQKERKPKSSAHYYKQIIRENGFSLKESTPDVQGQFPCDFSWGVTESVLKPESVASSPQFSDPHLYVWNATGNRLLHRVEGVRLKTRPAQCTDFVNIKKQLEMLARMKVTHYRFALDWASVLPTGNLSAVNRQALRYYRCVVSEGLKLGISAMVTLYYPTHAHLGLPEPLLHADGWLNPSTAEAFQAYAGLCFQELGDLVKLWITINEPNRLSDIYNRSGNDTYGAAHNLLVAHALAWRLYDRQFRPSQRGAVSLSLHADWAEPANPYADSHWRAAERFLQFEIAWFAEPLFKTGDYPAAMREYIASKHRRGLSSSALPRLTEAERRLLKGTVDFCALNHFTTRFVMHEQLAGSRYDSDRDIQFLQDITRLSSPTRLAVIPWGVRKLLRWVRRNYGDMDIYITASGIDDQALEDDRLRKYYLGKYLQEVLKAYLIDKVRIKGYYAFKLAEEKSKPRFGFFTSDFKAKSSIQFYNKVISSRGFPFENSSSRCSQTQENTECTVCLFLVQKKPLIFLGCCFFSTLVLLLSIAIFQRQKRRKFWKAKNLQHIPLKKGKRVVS

B1: antibody 5F7 (antibody, V domains shown)
VH: QVQPQESGPELVKPGALVKISCKASGYTFTRYDINWVKQRPGQGLEWIGWIYPGDISTKYNEKFKGKATLTADKSSSTAYMQLNSLTSENSAVYFCARSDYYGSRSFVYWGQGTLVTVSA
VL: DIVLTQSPASLAVSLGQRATISCRASKSVSTSGYSYMHWYQQKPGQPPKLLIYLASNLESGVPARFSGSGSGTDFTLNIHPVEEEDAATYYCQHSRELPYTFGGGTKVEIK
notes: Murine monoclonal antibody
B2: antibody 5H23 (antibody, V domains shown)
VH: B1 VH with P4L, E6Q, R31S, I56G, S77R, N84S, V108A
VL: B1 VL with S35V, Y40N, N57Y, T89I, E97D, P99T, Y100F, T101P, V108L
notes: Murine monoclonal antibody from hybridoma; also called 5H23-Alexa647 (labelled form)
B3: antibody 2L12 (antibody, V domains shown)
VH: B1 VH with P4L, E6Q, Q39K, I56D, N84S
VL: B1 VL with A12P, M37L, R96G, V108L
notes: Murine monoclonal antibody
B4: antibody 1D19 (antibody, V domains shown)
VH: B1 VH with V37M, I56S, Y60F, K63N, G66D, N84S, A92T, V108T
VL: B1 VL with V108L
notes: Murine monoclonal antibody
B5: antibody 4P5 (antibody, V domains shown)
VH: B1 VH with P4L, E6Q, Q39K, I56D, N84S
VL: B1 VL with V3L, S69R, Q93H, R96G, V108L
notes: Murine monoclonal antibody
B6: antibody 3L3 (antibody, V domains shown)
VH: B1 VH with A16T, R31S, I56G, T58P, N61D, N84S
VL: B1 VL with M37V, S69R, R96G, V108L
notes: Murine monoclonal antibody
B7: antibody 5C23 (antibody, V domains shown)
VH: B1 VH with Q39K, I56G, K65E, N84S
VL: B1 VL with A9D, A12T, V108L
notes: Murine monoclonal antibody
B8: antibody 1C17 (antibody, V domains shown)
VH: QVQLQESGPGLVKPSQSLSLTCSVTGYSITSGYYWNWIRQFPGNKLEWMGYINYDGNSNYTPSLKNRISITRDTSKNQFFLKLNSVTPEDTATYYCARKGAYYSNYDSFDVWGTGTTVTVSS
VL: DIKMTQSPSSMYASLGERVTITCKASQDINSYLSWVQQKPGKSPKTLIYRANRLVDGVPSRFSGSGSGQDYSLTISSLEYEDMGIYYCLQYDEFPFTFGSGTKLEIK
notes: Murine monoclonal antibody
B9: antibody 3N20 (antibody, V domains shown)
VH: QVQLQESGAELARPGASVKLSCKVSGYIFTNYGISWVKQRTGQGLEWIGEIYPRSGNTYYNEKFKGKATLTADMSSSTAYMDLRSLTSEDSAVYFCARHWDGVLDYFDYWGQGTSLTVSS
VL: DIVMTQSPSSLSVSAGEKVTMSCKSSQSLLNSGNQKNYLAWYQQKPGQPPKLLIYGASTRESGVPDRFTGSGSGTDFTLTISSVQAEDLAVYYCLNDHSYPFTFGAGTKLELK
notes: Murine monoclonal antibody

Columns and labels:
[1] = target: T2, human beta klotho / human FGFR1c receptor complex on cells (human, UniProt Q86Z14 1-1044; P11362 22-822); experiment: cell-based or functional assay
[2] = target: T1, human beta klotho expressed on cells; experiment: FACS competition on HuKLB-overexpressing cells; row antibody unlabelled; competitor 3I13-Alexa488 (labelled, EC10); MFI of the label
Method: (§1) For example, for competition binding assays by FACS analysis, antibody standards were prepared that were conjugated to a fluorochrome using either A488 or A647 antibody labeling kit (Invitrogen) following manufacturer's instructions. A dose titration of the conjugated antibody standard was evaluated using HuKLB overexpressing cells. The plateau of the maximal signal of antibody binding is EC=100 and the background signal is EC=0. Competition by FACS against the fluorochrome labeled antibody was performed by pre-incubating HuKLB overexpressing cells with hybridoma supernatants for 15 minutes at room temperature. Without washing, an EC=10 concentration of A488 or A647 labelled antibody standard was added. EC=10 for an individual antibody was determined by 10% of signal using the maximum signal as (100%) and background signal as (0%). After 30 minutes at 4° C., cells are washed and analyzed by FACS. […] A partial competing antibody is one sample that show signal between labelled antibody alone and background. Antibodies that show complete competition against the same standard antibody are considered to be in the same bin.
(§2) Representative results are shown in Table 12 below reported as mean fluorescence intensity (MFI).

[3] = target: T1, human beta klotho expressed on cells; experiment: FACS competition on HuKLB-overexpressing cells; row antibody unlabelled; competitor 5H23-Alexa647 (labelled, EC10); MFI of the label
Method: as §1, §2

[4] = target: T2, human beta klotho / human FGFR1c …; experiment: cell-based or functional assay; remark: listed apart in the source

Binder	hAdip pERK assay EC50, Experiment - B [1]	Mean Florescence Intensity (MFI) [2]	Mean Florescence Intensity (MFI) [3]	HEK293 huKLB/R1c reporter assay EC50, Experiment - A [4]	HEK293 huKLB/R1c reporter assay EC50, Experiment - B [4]
B1	> 67 nM	28.5 MFI	2.3 MFI	–	–
B2	1.66 nM	29.8 MFI	2.3 MFI	0.102 nM	0.0342 nM
B3	1.23 nM	30.9 MFI	3.1 MFI	0.373 nM	–
B4	> 67 nM	30.6 MFI	2.5 MFI	0.62 nM	–
B5	0.89 nM	30.1 MFI	2.4 MFI	0.6 nM	0.0783 nM
B6	~30 nM	28.7 MFI	4.2 MFI	0.773 nM	–
B7	> 67 nM	29.3 MFI	2.4 MFI	–	–
B8	> 67 nM	26.7 MFI	2.4 MFI	–	–
B9	> 67 nM	30.5 MFI	2.4 MFI	0.527 nM	–

Reference: patent US20210030857A1 (NGM BIOPHARMACEUTICALS, published 2021)
